Measurements from patent publication US20190016760A1 (Sanofi, published 2019).
Like-named read-outs stand apart in the source and are kept apart here.

Key:
[1] = biological target: the molecule itself
[2] = biological target: the molecule itself; remark: listed apart in the source
[3] = biological target: the molecule itself; remark: listed apart in the source

B1: Shigella flexneri MxiH protein fused to the lamprey VLR-B antibody C-terminal domain SEQ ID NO: 2, expressed in E. coli (other)
chain: MSVTVPNDDWTLSSLSETFDDGTQTLQGELTLALDKLAKNPSNPQLLAEYQSKLSEYTLYRNAQSNTVKVIKDVDAAIIQNFRNCTSIQERKNDGGDCGKPACTTLLNCANFLSCLCSTCALCRKR
notes: The expected monomer weight is 13.86 kDa; Found in the insoluble fraction; also called MxiH-lamprey
Does B1 bind [1]?
Result: binds

B2: Shigella flexneri MxiH protein fused to the lamprey VLR-B antibody C-terminal domain SEQ ID NO: 2, with GGSLE linker and 6xHis tag (other)
chain: MSVTVPNDDWTLSSLSETFDDGTQTLQGELTLALDKLAKNPSNPQLLAEYQSKLSEYTLYRNAQSNTVKVIKDVDAAIIQNFRNCTSIQERKNDGGDCGKPACTTLLNCANFLSCLCSTCALCRKRGGSLEHHHHHH
notes: also called MxiH-lamprey-His
Does B2 bind [2]?
Result: binds

B3: Shigella flexneri IpaD protein fused to the lamprey VLR-B antibody C-terminal domain SEQ ID NO: 2, expressed in E. coli (other)
chain: MNITTLTNSISTSSFSPNNTNGSSTETVNSDIKTTTSSHPVSSLTMLNDTLHNIRTTNQALKKELSQKTLTKTSLEEIALHSSQISMDVNKSAQLLDILSRHEYPINKDARELLHSAPKEAELDGDQMISHRELWAKIANSINDINEQYLKVYEHAVSSYTQMYQDFSAVLSSLAGWISPGGNDGNSVKLQVNSLKKALEELKEKYKDKPLYPANNTVSQEQANKWLTELGGTIGKVSQKNGGYVVSINMTPIDNMLKSLDNLGGNGEVVLDNAKYQAWNAGFSAEDETMKNNLQTLVQKYSNANSIFDNLVKVLSSTISSCTDTDKLFLHFNCTSIQERKNDGGDCGKPACTTLLNCANFLSCLCSTCALCRKR
notes: also called IpaD-lamprey
Does B3 bind [3]?
Result: binds
